Reference: patent CN115433278A

T1: CS1 FC融合标签蛋白 (CS1 Fc fusion tag protein, expressed in 293F cells) (UniProt Q9NQ25)
T1 sequence (looked up): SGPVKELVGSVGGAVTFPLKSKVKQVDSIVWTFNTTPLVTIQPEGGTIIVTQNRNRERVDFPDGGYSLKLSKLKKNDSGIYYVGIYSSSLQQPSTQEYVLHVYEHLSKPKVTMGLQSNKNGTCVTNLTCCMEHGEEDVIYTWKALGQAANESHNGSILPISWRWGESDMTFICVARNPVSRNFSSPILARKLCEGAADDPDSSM

B1: 命名为2B3的兔重组单克隆抗体 (rabbit recombinant monoclonal antibody 2B3) (antibody, V domains shown)
VH: QSVEESGGRLVTPGTPLTLTCTVSGFSLSAYAMGWFRQAPGKGLEYIGIISDSASTFYATWAKGRFTISRTSSTMVDLKMTSPTTEDTATYFCARAYYVVDNDSPFNMWGPGTVVTVS
VL: VMTQTPSSVSAAVGGTVTINCQASENIYSSLAWYQQKPGQPPKLLIYAASKLESGVPSRFKGSRSETDFTLTISDLECDDAATYYCQSYYDTGRASFAFGGGTEVVVK
B2: 命名为1H2的兔重组单克隆抗体 (rabbit recombinant monoclonal antibody 1H2) (antibody, V domains shown)
VH: QSVEESRGGLIKPTDTLTLTCTVSGFSLSNYGVSWVRQAPGNGLEYIGFIGTIGATLYANWAKSRSTITRNTNLNTVTLKMTSLTAADTATYFCARGIYGDIYVYAFDIWGPGTLVTVSS
VL: AAVLTQTPSPVSAAVGGTVTISCQASQSVRDNGDLAWYQQKPGQPPKLLIYDVSALASGVPSRFKGRGSGTQFTLTISDLECDDAATYSCAGGYIAGSDRWVFGGGTEVVVK
B3: 命名为1D12的兔重组单克隆抗体 (rabbit recombinant monoclonal antibody 1D12) (antibody, V domains shown)
VH: QSVEESGGRLVTPGTPLTLTCTVSGFSLSSYGMIWVRQAPGKGLEWIGSINTDGSTYYATWAKGRFTISRTSTTVDLKITSPTTEDTATYFCARGYPGYITDSYYYFNIWGPGTLVTVS
VL: DVVLTQTPASVEAAVRGTVTIKCQASQSISSYLSWYQQKPGQPPKLLIYRASTLESGVPSRFKGSGSGTEFTLTITDLECADAATYYCQCTYGTFHSSGYGFGGGTGVVVK

Legend:
[1] = target: T1, CS1 FC融合标签蛋白 (CS1 Fc fusion tag protein, expressed in 293F cells); experiment: ELISA, CS1 protein coated at 1 ug/ml, purified antibody at dilution 5K
[2] = target: T1, CS1 FC融合标签蛋白 (CS1 Fc fusion tag protein, expressed in 293F cells); experiment: ELISA, CS1 protein coated at 1 ug/ml, purified antibody at dilution 25K
[3] = target: T1, CS1 FC融合标签蛋白 (CS1 Fc fusion tag protein, expressed in 293F cells); experiment: ELISA, CS1 protein coated at 1 ug/ml, purified antibody at dilution 125K
[4] = target: T1, CS1 FC融合标签蛋白 (CS1 Fc fusion tag protein, expressed in 293F cells); experiment: ELISA, CS1 protein coated at 1 ug/ml, purified antibody at dilution 625K
[5] = target: T1, CS1 FC融合标签蛋白 (CS1 Fc fusion tag protein, expressed in 293F cells); experiment: ELISA, CS1 protein coated at 1 ug/ml, purified antibody at dilution 3125k
[6] = target: T1, CS1 FC融合标签蛋白 (CS1 Fc fusion tag protein, expressed in 293F cells); experiment: ELISA, CS1 protein coated at 1 ug/ml, purified antibody at dilution 15625k
[7] = target: T1, CS1 FC融合标签蛋白 (CS1 Fc fusion tag protein, expressed in 293F cells); experiment: indirect ELISA, CS1 protein coated at 1 ug/ml, B cell culture supernatant, goat anti-rabbit IgG-HRP
[8] = target: T1, CS1 FC融合标签蛋白 (CS1 Fc fusion tag protein, expressed in 293F cells); experiment: ELISA, CS1 protein coated at 1 ug/ml, purified antibody at dilution 1K

Binder | ELISA OD [1] | ELISA OD [2] | ELISA OD [3] | ELISA OD [4] | ELISA OD [5] | ELISA OD [6] | OD450值 [7] | ELISA OD [8]
B1 | 3.95 | 2.91 | 0.98 | 0.276 | 0.161 | 0.108 | 2.03 OD450 | 
B2 | 3.83 | 2.39 | 1.18 | 0.32 | 0.153 | 0.11 | 1.52 OD450 | 3.95
B3 |  | 3.45 | 2.02 | 0.522 | 0.209 | 0.124 | 2.13 OD450 | 
